# B1: Arfaptin-1 (Homo sapiens), P53367 (parent)
# chain: MAQESPKNSAAEIPVTSNGEVDDSREHSFNRDLKHSLPSGLGLSETQITSHGFDNTKEGVIEAGAFQGSPAPPLPSVMSPSRVAASRLAQQGSDLIVPAGGQRTQTKSGPVILADEIKNPAMEKLELVRKWSLNTYKCTRQIISEKLGRGSRTVDLELEAQIDILRDNKKKYENILKLAQTLSTQLFQMVHTQRQLGDAFADLSLKSLELHEEFGYNADTQKLLAKNGETLLGAINFFIASVNTLVNKTIEDTLMTVKQYESARIEYDAYRTDLEELNLGPRDANTLPKIEQSQHLFQAHKEKYDKMRNDVSVKLKFLEENKVKVLHNQLVLFHNAIAAYFAGNQKQLEQTLKQFHIKLKTPGVDAPSWLEEQ
# B2: Arfaptin-1 (Homo sapiens), P53367 (parent)
# chain: B1 chain
# partner: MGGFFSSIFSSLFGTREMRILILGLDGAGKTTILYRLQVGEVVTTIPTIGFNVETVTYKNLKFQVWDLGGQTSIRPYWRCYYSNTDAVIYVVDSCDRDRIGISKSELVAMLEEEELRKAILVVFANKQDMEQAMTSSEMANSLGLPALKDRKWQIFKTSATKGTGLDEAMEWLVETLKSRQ
# Variants of: B1
# Details: with arf1_human ARF1, P84077
# Sequence of arf1_human ARF1, P84077 (P84077 whole entry): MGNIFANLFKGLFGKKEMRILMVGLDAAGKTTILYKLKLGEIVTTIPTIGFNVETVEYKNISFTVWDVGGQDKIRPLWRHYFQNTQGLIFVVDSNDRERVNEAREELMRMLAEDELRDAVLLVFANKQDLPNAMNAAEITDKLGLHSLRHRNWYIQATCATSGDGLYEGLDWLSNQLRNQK
row,effect of a mutation on the interaction,Variant
1,disrupting interaction strength,MAQESPKNSAAEIPVTSNGEVDDSREHSFNRDLKHSLPSGLGLSETQITSHGFDNTKEGVIEAGAFQGSPAPPLPSVMSPSRVAASRLAQQGSDLIVPAGGQRTQTKSGPVILADEIKNPAMEKLELVRKWDLNTYKCTRQIISEKLGRGSRTVDLELEAQIDILRDNKKKYENILKLAQTLSTQLFQMVHTQRQLGDAFADLSLKSLELHEEFGYNADTQKLLAKNGETLLGAINFFIASVNTLVNKTIEDTLMTVKQYESARIEYDAYRTDLEELNLGPRDANTLPKIEQSQHLFQAHKEKYDKMRNDVSVKLKFLEENKVKVLHNQLVLFHNAIAAYFAGNQKQLEQTLKQFHIKLKTPGVDAPSWLEEQ [S132D]

# Variants of: B1
# Details: with arf3_human ARF3, P61204
# Sequence of arf3_human ARF3, P61204 (P61204 whole entry): as the sequence (P84077 whole entry) above, with A6G, F9L, G11S, F13I, S174A, R178K, Q180K counted along it
row,effect of a mutation on the interaction,Variant
1,disrupting interaction strength,MAQESPKNSAAEIPVTSNGEVDDSREHSFNRDLKHSLPSGLGLSETQITSHGFDNTKEGVIEAGAFQGSPAPPLPSVMSPSRVAASRLAQQGSDLIVPAGGQRTQTKSGPVILADEIKNPAMEKLELVRKWDLNTYKCTRQIISEKLGRGSRTVDLELEAQIDILRDNKKKYENILKLAQTLSTQLFQMVHTQRQLGDAFADLSLKSLELHEEFGYNADTQKLLAKNGETLLGAINFFIASVNTLVNKTIEDTLMTVKQYESARIEYDAYRTDLEELNLGPRDANTLPKIEQSQHLFQAHKEKYDKMRNDVSVKLKFLEENKVKVLHNQLVLFHNAIAAYFAGNQKQLEQTLKQFHIKLKTPGVDAPSWLEEQ [S132D]
2,with no effect,MAQESPKNSAAEIPVTSNGEVDDSREHSFNRDLKHSLPSGLGLSETQITSHGFDNTKEGVIEAGAFQGSPAPPLPSVMSPSRVAASRLAQQGSDLIVPAGGQRTQTKSGPVILADEIKNPAMEKLELVRKWALNTYKCTRQIISEKLGRGSRTVDLELEAQIDILRDNKKKYENILKLAQTLSTQLFQMVHTQRQLGDAFADLSLKSLELHEEFGYNADTQKLLAKNGETLLGAINFFIASVNTLVNKTIEDTLMTVKQYESARIEYDAYRTDLEELNLGPRDANTLPKIEQSQHLFQAHKEKYDKMRNDVSVKLKFLEENKVKVLHNQLVLFHNAIAAYFAGNQKQLEQTLKQFHIKLKTPGVDAPSWLEEQ [S132A]

# Variants of: B1
# Details: with arf1_human ARF1, P84077
# Remark: another data set of the same source
row,effect of a mutation on the interaction,Variant
1,with no effect,MAQESPKNSAAEIPVTSNGEVDDSREHSFNRDLKHSLPSGLGLSETQITSHGFDNTKEGVIEAGAFQGSPAPPLPSVMSPSRVAASRLAQQGSDLIVPAGGQRTQTKSGPVILADEIKNPAMEKLELVRKWALNTYKCTRQIISEKLGRGSRTVDLELEAQIDILRDNKKKYENILKLAQTLSTQLFQMVHTQRQLGDAFADLSLKSLELHEEFGYNADTQKLLAKNGETLLGAINFFIASVNTLVNKTIEDTLMTVKQYESARIEYDAYRTDLEELNLGPRDANTLPKIEQSQHLFQAHKEKYDKMRNDVSVKLKFLEENKVKVLHNQLVLFHNAIAAYFAGNQKQLEQTLKQFHIKLKTPGVDAPSWLEEQ [S132A]

# Variants of: B2
# Details: with arl1_human ARL1, P40616
row,effect of a mutation on the interaction,Variant
1,with no effect,MAQESPKNSAAEIPVTSNGEVDDSREHSFNRDLKHSLPSGLGLSETQITSHGFDNTKEGVIEAGAFQGSPAPPLPSVMSPSRVAASRLAQQGSDLIVPAGGQRTQTKSGPVILADEIKNPAMEKLELVRKWALNTYKCTRQIISEKLGRGSRTVDLELEAQIDILRDNKKKYENILKLAQTLSTQLFQMVHTQRQLGDAFADLSLKSLELHEEFGYNADTQKLLAKNGETLLGAINFFIASVNTLVNKTIEDTLMTVKQYESARIEYDAYRTDLEELNLGPRDANTLPKIEQSQHLFQAHKEKYDKMRNDVSVKLKFLEENKVKVLHNQLVLFHNAIAAYFAGNQKQLEQTLKQFHIKLKTPGVDAPSWLEEQ [S132A]
2,disrupting interaction strength,MAQESPKNSAAEIPVTSNGEVDDSREHSFNRDLKHSLPSGLGLSETQITSHGFDNTKEGVIEAGAFQGSPAPPLPSVMSPSRVAASRLAQQGSDLIVPAGGQRTQTKSGPVILADEIKNPAMEKLELVRKWDLNTYKCTRQIISEKLGRGSRTVDLELEAQIDILRDNKKKYENILKLAQTLSTQLFQMVHTQRQLGDAFADLSLKSLELHEEFGYNADTQKLLAKNGETLLGAINFFIASVNTLVNKTIEDTLMTVKQYESARIEYDAYRTDLEELNLGPRDANTLPKIEQSQHLFQAHKEKYDKMRNDVSVKLKFLEENKVKVLHNQLVLFHNAIAAYFAGNQKQLEQTLKQFHIKLKTPGVDAPSWLEEQ [S132D]

# Reference: IntAct's records for PubMed 22981988
